Assay: soluble on expression in E. coli; label from the status in PepcDB or PDB records

Sequence | soluble on expression in E. coli
MFGIFDKGQKIKGTVVLMPKNVLDFNAITSIGKGGVIDTATGILGQGVSLVGGVIDTATSFLGRNISMQLISATQTDGSGNGKVGKEVYLEKHLPTLPTLGARQDAFSIFFEWDASFGIPGAFYIKNFMTDEFFLVSVKLEDIPNHGTIEFVCNSWVYNFRSYKKNRIFFVNDTYLPSATPAPLLKYRKEEFEVLRGDGTGKRKDFDRIYDYDVYNDLGNPDGGDPRPILGGCSIYPYPLRVRTGRERTRTDPNSEKPGEVYVPRDENFGHLKSSDFLTYGIKSLSHDVIPLFKSAIFQLRVTSSEFESFEDVRSLYEGGIKLPTDILSQISPLPALKEIFRTDGENVLQFPPPHVAKVSKSGVMTDEEFAREVIAGVNPNVIRRLQEFPPKSTLDPTLYGDQTSTITKEQLEINMGGVTVEEALSTQRLFILDYQDAFIPYLTRINSLPTAKAYATRTILFLKDDGTLKPLAIELSKPHPDGDNLGPESIVVLPATEGVDSTIWLLAKAHVIVNDSGYHQLVSHWLNTHAVMEPFAIATNRHLSVLHPIYKLLYPHYRDTININGLARQSLINADGIIEKSFLPGKYSIEMSSSVYKNWVFTHQALPADLVKRGLAIEDPSAPHGLRLVIEDYPYAVDGLEIWDAIKTWVHEYVSLYYPTDAAVQQDTELQAWWKEAVEKGHGDLKEKPWWPKKQTTEDLIQSCSIIVWTASALHAAVNFGQYPYGGLILNRPTLARRFIPAEGTPEYDEMVKNPQKAYLRTITPKFETLIDLSVIEILSRHASDEIYLGERETPNWTTDKKALEAFKRFGSKLTGIEGKINARNSDPSLRNRTGPVQLPYTLLHRSSEEGLTFKGIPNSISI | soluble
MPPRMSVAPERALIDVDREIRIDGFGPYACIDVTAEMRMCGVPWRSRATFLAGADGSLDLGRDSPVSGDYAEPDAMGLVWSMQCQDPPRAVFPPDRTDALTVHITASDGRHEAHATLVQEFLAEGVRHQAVRARAGGMSLSGELYTPP | not soluble
MGSDKIHHHHHHMKILHLGKFYPLKGGMEKAILDIVRGISMQGVTCDLLCVSTEKAGVFPLNEHAHIYAMPSVCNVNSVRISPLLIPTLRKLCPNYDIIHIHCPNPMANLALYLSGYRGKVVLHWHSDILKQKYALKLYKPLQTWLIRRADVIIGTSPVYLENSPFLRGMEHKFRIVPLGCEAIVPSADRVSDIRKQYKGKRIIFALGRLIAYKGFRFLIEAARYLDDGYVVLIGGTGPLYNKLLKQINEENLQGKVCLLGYVTDDEVAQYYGACDVFCLSSVWKTEAFGLVQIEAMSCGKPVVATNIEGSGVPWVNRNGYSGLNVEPENPEALAKAIMKITSSEEAYRTYSRQARAHYNKMFVKERMLAGYEQVYASLYHEK | not soluble
MSLTALSALIEQKLQSLGTILCQSFPELSPEKIHEAIQQNSNHPELPVYQLGYAIAMSDFVEKVLQKYPHLVKQWWEKSPCFADCTAYIERLNKELANVHDETALYQTLRQFRNIEMAKLSFCQSLNLATVEEIFVQLSQLAESLIIAARDWLYHQACAEIGTPMDEQGNPQQLYILGMGKLGGFELNFSSDIDLIFTYPSQGETSVENTNARRSVDNGKFFTRLGQRLISALDEFTSDGFVYRTDMRLRPFGDSGVLVLSFSAMEQYYQDQGRDWERYAMIKGRVLGAQTKDPNVSKLKKMLRPFVYRRYIDFSVIQSLREMKGKIEREVRRRGLKDNIKLGAGGIREVEFIVQVFQLIRGGREINLQQHSLLKILPEITKLRLITEQQFHDLRESYIFLRRVENILQAINDQQTQTLPTDEIDQIRLVEACKTFTCLNENNQTIEKHYPIENWDDFYRTLQQKQEKVRAVFTQLIGDEQDESSQTDSQWQDFLEADFEDIEQTLLESSVSENNIDEVLEKLAQFKDGLNHRVIGSRGRDVLSHLMPTVLALIFEQENYRTLLPRILNIIEKISSRTTYLELLLENPRALQQVIELCAQSQLISEQLAHYPILLDELLNTEALRHPLPFTQYPAELHQYLLRLPPDDEEQLIDALRQFKQATLLKVAAADILGALPVMKVSDHLTYLAEAIIEVVVNLAWKQVSSRFGVPEHLQNNEKGFLVIGYGKLGGIELGYKSDLDLVFLYDAVESQTTGGKKVIDSNQFYLRLAQKIVSIFSINTSAGVLYEADMRLRPSGDAGLIGCSLSAFSHYQLNDAWTWEKQALVRARPVFGESSLKAKFEHIRQQVLSASRDIEQLKQDVVEMRKKMFAHLSHSKHSEFNLKTDRGGITDIEFIAQYLMLANAPKKPQLTKWSDNVRIFDDMAEAKIISQTDCDTLKQCYVDLRNTIHHLNLLGKSSVVEDSEFVKERSFIQAFWDRLFVSEGHHHHHH | soluble
MNTQKPFENHLKSVDDLKTTYEEYRAGFIAFALEKNKRSTPYIERARALKVAASVAKTPKDLLYLEDIQDALLYASGISDKAKKFLTEDDKKESINNLIENFLEPAGEEFIDELIFRYLLFQGDSLGGTMRNIAGALAQQKLTRAIISALDIANIPYKWLDSRDKKYTNWMDKPEDDYELETFAKGISWTINGKHRTLMYNITVSLVKKNVDICLFNCEPEIYTPQKVHQQPEKYLLLGELKGGIDPAGADEHWKTANTALTRIRNKFSEKGLSPKTIFIGAAIEHSMAEEIWDQLQSGSLTNSANLTKTEQVGSLCRWIINI | soluble
MHAPLVSKDLDYISTANHDQPPRHLGSRFSAEGEFLPEPGNTVVCHLVEGSQTESAIVSTRQRFLDMPEASQLAFTPVSSLHMTVFQGVIESRRALPYWPQTLPLDTPIDAVTDYYRDRLSTFPTLPAFNMRVTGLRPVGMVMKGATAEDDSIVALWRDTFADFFGYRHPDHDTYEFHITLSYIVSWFEPECLPRWQAMLDEELEKLRVAAPVIQMRPPAFCEFKDMNHFKELVVFDKR | soluble
GAMGPREVTMKKGDILTLLNSTNKDWWKVEVNDRQGFVPAAYVKKLDSGTGKELVLALYDYQESGDNAPSYSPPPPP | soluble
MNMANVKIKIRDGLIDRLRNMSGITSDEAFARTIGTSRSTLVDVKTGEREPSLAFAIGIAQAFGLGLSEIVTWETETTAA | not soluble
MTLSSKTTKKNTSQHKHPRYVDCDNCSMRAICQPIGADNQAIDLTSNYLTRRVEVSTEQSSSLPLNQSAGVALFEQASPLTAIFAVCSGTFKLCQKNDDGLDRIVGFRFPGELIGEDALFLEVYNYSAVALGDNSVCEVYVDSLSACSQLAPELQQNLIQLLTKQSYEQQRNAHAITGKKSADCLLAAFLLNICQRNAKHSGNETEIELTISRQDIASFLGMRRETLSRLLSKFQHEQLISLNGKQLSLLSLNHLKQLSNQ | not soluble
MSLATIVVKTTPDNEIAYWPTGKEHLFCIALGTKAQAGPLGEFVHQFRTDRPGMVQVWTQGSDSFTLYLTPGSKDTITVTKDTLIISGTNSAYNRCLKTVNDYQKYSDKLVYMQPHELRGITSLEQYHRLADARMRQALDAVNASGLNEEFLAEQRAHIDYIRRSIFIHIARQLSRKEKLPEDWQRELTEVINSSVNGDYLRSYRGIGFFVNDLVMMQFTNLENGDLKEIKEYASFLFDRYRKFFTGDNLQYMQAQLIYEDEFQGSKTPSIPQLYETYRAEFPNSPFLNVLEPGVKENLRFQNSRITDKDYHILTCDSTITSLEDAVKPFKGKVVYIDVWATWCGPCLKEFQYLPTLKEKAHNMDVVYLYISIDRPEERKKWEKTIAYHQLKGYHLLVNEKLGKSLYTELGNERQILSIPCFVIIDKTGKIVIRHAAAPSEPEKVIEQLSTYYNKEGHHHHHH | soluble
MGSDKIHHHHHHMAHEMIGTQIVTERLVALLESGTEKVLLIDSRPFVEYNTSHILEAININCSKLMKRRLQQDKVLITELIQHSAKHKVDIDCSQKVVVYDQSSQDVASLSSDCFLTVLLGKLEKSFNSVHLLAGGFAEFSRCFPGLCEGKSTLVPTCISQPCLPVANIGPTRILPNLYLGCQRDVLNKELMQQNGIGYVLNASNTCPKPDFIPESHFLRVPVNDSFCEKILPWLDKSVDFIEKAKASNGCVLVHCLAGISRSATIAIAYIMKRMDMSLDEAYRFVKEKRPTISPNFNFLGQLLDYEKKIKNQTGASGPKSKLKLLHLEKPNEPVPAVSEGGQKSETPLSPPCADSATSEAAGQRPVHPASVPSVPSVQPSLLEDSPLVQALSGLHLSADRLEDSNKLKRSFSLDIKSVSYSASMAASLHGFSSSEDALEYYKPSTTLDGTNKLCQFSPVQELSEQTPETSPDKEEASIPKKLQTARPSDSQSKRLHSVRTSSSGTAQRSLLSPLLRSGSVEDNYHTSFLFGLSTSQQHLTKSAGLGLKGWHSDILAPQTSTPSLTSSWYFATESSHFYSASAIYGGSASYSAYSCSQLPTCGDQVYSVRRRQKPSDRADSRRSWHEESPFEKQFKRRSCQMEFGESIMSENRSREELGKVGSQSSFSGSMEIIEVS | not soluble
QAALNSLGTNSVAATTAAQKIDQVATQPLMSFGVTMATFAAQNYGAHQYERIITGVKQTMWLSGSFSVAAGLIEIIWGKQLVGFFVGHQDMAVLNL | not soluble
VELIGRSEWINQYRRRLQQLSETDIAVWLYGAPGTGRMTGARYLHQFGRNAQGEFVYRELTPDNAPQLNDFIALAQGGTLVLSHPEHLTREQQYHLVQLQSQEHRPFRLIGIGDTSLVELAASNHIIAELYYCFAMTQIACLPLT | soluble
MSTVRSIYYRGSLEHCNYTCSYCPFGRKSVSADTTEDQEALDRFISRIGGWKYGSLRILIIPYGEAMIHRYYREGIMRLAAMPHVIGVSCQTNLSFSVSRFLDEAEAEQADVSKFRFWASYHPEMVGVGEFASKVEMLRAAGIGVCAGAVGDPSAKEQIRKLRQLLDPSVYLFVNAMQGLRKPLSEEDIRFFGEIDNLFDYDRRNAKACLDGCVGGRETLFIDRKGDMYACPRSGIRMGNFYDDSTSDFQPFCLRKVCDCYIAFSNLCDTPLRRMMGDGALWRIPERKKVEAVFFDVDGTLTDAQGRIPDRTVSVLEYMAKRLPLYLSTALPVSHAKKRLGNVFGLFSGGVFADGGLLCYGETIECVPIANPMTAGFPGCRVTRYTREGKVFKYAVLAPNTREAVRWLTELDEEAYQLYQEGRLLTVVDSKASKKNGLITLCARLGISLREVLVVGNTMHDWPMMSVAGYSCAVMDAEEKLRKLSGYVLNPDSIPVFFDILEHHHHHH | not soluble
SLSFSSKVKSEVCRYDDYSKGEAIAVLSAVMKASGTLALEGNRKISFKIITENPAIARLIFKLLKKYFDIHTEIMMKKSNSLKKNNVYVVSITEDMGVRELLKTVGVMKNEDGIVTLSYDIPEFVVKDDESRKMYIRGAFLGGGSVSNPEKMYHLEFVTHNEDYASNLRDLINTYGLNSKVIQRKNSYVVYIKEGEQVVDLLNIIGAHSSLLELENIRIIKEMRNNINRLVNCETANLSKTVNASVRQIESIKLIEKQIGLSRLPENLREVAKLRLNYPDESLKELGKMLEPPVGKSGVNHRLRKIEKIAEELRKEGR | soluble
MKVIIFGGSGFLGQQIAKILVQRQHQVISVSRHGKPATLSASWSHQVQWVCSDVTHDTNWQEQVQRADWVIDTVGILFENPRKKKTYQRLILTPVKKISSFLAQQKKPAKFLFISANTVPFPLRKYMDAKLAAEELIHQEVAEAVIFYPSLLVGQERTGTILFSKCIYFFKKIPFLKNLFIGYDPVPVAEMAQEIVHVLEGGNSIYTHRRTR | not soluble
MSLPNCLQCQSEYVYEDGLLLICPMCAFEWTPGEEATEEEGLVVLDSNGVRLSDGDTITVVKDLKVKGAPKDLKQGTRVKNIRLVEGDHNIDCKIDGFGAMKLKSEFVKKI | not soluble
AHHHHHHGSRERGVAFFSGGKDGLYALYLAEKEGIEVPYLLTLKTSIGLSPHWENLSSLKALAENMGKKLLTFDMKYGSKALAEFISSLDVDYIIAGDVFLEDHLKWINLLAEKAGIKSFEPLWGKNTLELAKEMLNAGFKYSIIAVDKNKLEKTWLGYTFSSTRDIEIFIYENPTIDPLGEGGEFHTITLSSPLFKDEFTLEKISVEESERYWWMRFRVVGNDIKNVRVKGHNSRKDG | not soluble
SNALANRIENVVSQERTRKKFESLVSDSPDGIVHLTTNGTILSVNPSMAGRLGADPDTLVGQQLSAVMDSEAANQRLEAGKSAVENGTATRSEDAVGGRHYHNQYIPVDSHRKSDTFQLVSRDIT | soluble

Source: the DeepSol protein solubility set
